# Measurements reported in patent US20140010886A1, “COMPOSITIONS COMPRISING SACCHARIDE BINDING MOIETIES AND METHODS FOR TARGETED THERAPY” (GEORGIA TECH RESEARCH CORPORATION, priority 2011, published 2014).
# How the values were obtained:
# [1] = test system: CD133+ GBM-CSCs; experiment: Lectin panel labeling of CD133+ GBM-CSCs during differentiation (flow cytometry); assay type: binding, human; details: for recognition of GBM-CSCs by lectin after differentiation: after 12 days of differentiation; for recognition of undifferentiated GBM-CSCs by lectin: day 1, undifferentiated CD133+ GBM-CSCs
# Description: The fact that lectin moieties recognize carbohydrates located on the surface of cells makes them a great tool to identify changes in glycosylation patterning during differentiation. We used a panel of 20 lectins to study the patterning of CD133^+ GBM-CSCs surface glycosylation during differentiation (Table 1). Neurospheres derived from CD133^+ GBM-CSCs were grown as mentioned above and were plated onto polyornithin and laminin coated tissue culture grade plastics. Within 10 hours the neuroshperes adhered and neurite formations were observed. Differentiation continued for 12 days, and harvested cells (day 1 and day 12) were labeled with our panel of lectins (FIG. 2A). […] Furthermore, the recognition and decrease in recognition of GalNAc and GlcNAc coincide with the expression of GBM-CSC marker CD133-glycosylation (CD133-G) and general stem cell markers OCT 4 and SOX2 (FIG. 3C). OCT 4 and SOX2 have been well studied in GBMs and are accepted indicators of sternness in GBM cell lines.
# [2] = test system: DBA positive sorted cells (CTB-1 GBM-CSCs); experiment: Lectin reactivity of DBA positive sorted GBM-CSCs (flow cytometry); assay type: binding, human; details: for lectin reactivity of DBA positive sorted cells: day 1; for lectin reactivity of DBA positive sorted cells by day 12: day 12 of differentiation
# Description: The percent of cells with specific carbohydrate expression as determined by flow cytometry using 8 different lectins. The data are means+/−SD of 3 independent assays of CTB-1 GBM-CSCs. CTB-1 cell line was stained with CD133, OCT4, and SOX2 antibody in addition to lectin staining Statistical significance (p≦0.05) is indicated by asterisk.
# DBA lectin positive cells made up less than 1% of the total population and phenotypically appeared to proliferate at a much slower rate than the DBA negative population. […] Increased proliferation in DBA negative populations can be visualized via microscopy at day 1 and day 12 (FIG. 7). At day 12 the DBA negative population appears to be denser than the DBA positive population (FIG. 7), however, both populations are able to produce GFAP positive cells (Astrocytes) identical to the CD133 positive sorted cells (FIG. 7). […] DBA negative sorted cells contradict the aforementioned, and show low reaction towards GalNAc and GlcNAc recognizing lectins and this continues to decrease by day 12 (FIG. 8B). Con A remains high throughout in both populations and serves as a positive control (FIGS. 8A and 8B). However, GBM-CSC marker CD133-G and general stem cell markers OCT 4 and SOX 2 are high in the DBA positive sorted cells, and similar to DBA reactivity, decreases substantially by day 12 of differentiation (FIG. 8A). However, in the DBA negative population these stem cell markers uniformly are low at day one and are almost non-existent by day 12 (FIG. 8A). Until now CD133 has been considered the only marker for CSCs derived from GBM brain tumors. However, using cell sorting technology, DBA lectin, which recognizes GalNAc, we were able to separate CD133^+ cells from CD133− cells.
Molecule,recognition of GBM-CSCs by lectin after differentiation [1],recognition of undifferentiated GBM-CSCs by lectin [1],lectin reactivity of DBA positive sorted cells [2],lectin reactivity of DBA positive sorted cells by day 12 [2]
"SBA: lectin soybean agglutinin, recognizes the glycan moiety GalNAc",markedly decreased,highly recognized,high reactivity,decrease
"PNA: lectin peanut agglutinin, recognizes the glycan moiety GalNAc (protein, UniProt P02872 24-273, looked up) Galactose-binding lectin: AETVSFNFNSFSEGNPAINFQGDVTVLSNGNIQLTNLNKVNSVGRVLYAMPVRIWSSATGNVASFLTSFSFEMKDIKDYDPADGIIFFIAPEDTQIPAGSIGGGTLGVSDTKGAGHFVGVEFDTYSNSEYNDPPTDHVGIDVNSVDSVKTVPWNSVSGAVVKVTVIYDSSTKTLSVAVTNDNGDITTIAQVVDLKAKLPERVKFGFSASGSLGGRQIHLIRSWSFTSTLITTTRRSIDNNEKKIMNMASA",markedly decreased,highly recognized,high reactivity,decrease
"ECL: erythrina cristagalli lectin, recognizes the glycan moiety GlcNAc (protein, listed as Homo sapiens) VETISFSFSEFEPGNNDLTLQGAAIITQSGVLQLTKINQNGMPAWDSTGRTLYTKPVHIWDMTTGTVASFETRFSFSIEQPYTRPLPADGLVFFMGPTKSKPAQGYGYLGVFNNSKQDNSYQTLAVEFDTFSNPWDPPQVPHIGIDVNSIRSIKTQPFQLDNGQVANVVIKYDASSKILLAVLVYPSSGAIYTIAEIVDVKQVLPEWVDVGLSGATGAQRDAAETHDVYSWSFHASLPETND",noticeably decreased,highly recognized,highly reactive,decreased
